Earlier results in publication PMC3139910.
pKd: −log10 of the molar value.

Target: CCR7 (Homo sapiens) (UniProt P32248)
Sequence of UniProt P32248 (P32248 25-378): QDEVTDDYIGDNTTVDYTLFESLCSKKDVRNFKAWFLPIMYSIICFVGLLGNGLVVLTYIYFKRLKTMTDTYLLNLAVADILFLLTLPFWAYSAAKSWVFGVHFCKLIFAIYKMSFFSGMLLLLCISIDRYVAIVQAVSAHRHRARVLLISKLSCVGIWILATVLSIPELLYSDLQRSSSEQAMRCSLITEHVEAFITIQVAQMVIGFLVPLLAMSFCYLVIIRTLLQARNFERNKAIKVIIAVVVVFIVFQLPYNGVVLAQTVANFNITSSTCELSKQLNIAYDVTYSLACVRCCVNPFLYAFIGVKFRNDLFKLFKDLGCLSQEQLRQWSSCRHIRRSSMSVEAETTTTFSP

pKd: 8.30
Substance: CCL21 (from UniProt O00585)
